Measurements as given in US6719976B1, “Peptide-based immunotherapeutic agent for treating allergic diseases” (Meiji Milk Products Co., Ltd., priority 1996, dated 2004).

Experiments:
CBF1 mice = test: Inducing immune tolerance by administering cedar pollen allergen to mice; type: in vivo; conditions: 300 μg/mouse s.c. twice, then sensitized with 100 μg Cry j 1 + Alum; compared to PBS control group
Description: The detailed mechanism in hyposensitization therapy by which cedar pollen allergen is administered for the treatment is yet unknown. To clarify this mechanism, tests were conducted using mice. Cedar pollen allergen Cry j 1 was subcutaneously administered twice to five CBF1 female mice at intervals of 5 days in a dose of 300 μg/mouse. For control, the same dose of PBS was subcutaneously given to five other female mice. Five days later, the animals were sensitized by subcutaneous injection of 100 μg Cry j 1 together with Alum adjuvant. Ten days later, the lymphocytes were isolated to pool them as the lymphocytes from the control group and as the lymphocytes from the Cry j 1-administered mice. Cry j 1 was added to the pooled lymphocytes in doses of 0, 50 and 150 μg/ml. Incubation was performed for 3 days to collect the culture supernatant. In the control (PBS-administered) mouse group, IL-2 production increased as the concentration of Cry j 1 increased from 0 to 50 and 150 μg/ml. […] The results verify that currently implemented hyposensitization therapy using the cedar pollen allergen is efficacious.

[1] = system: T cell line of each patient specifically recognizing Cry j 1 or Cry j 2; test: T cell line proliferation response to overlapping peptides ([3H] thymidine uptake); type: cell-based, human; conditions: 18 patients with cedar pollinosis; stimulation index 2 or more
Description: Peripheral lymphocytes from 18 patients with cedar pollinosis were stimulated by cedar pollen allergen Cry j 1 or Cry j 2to establish the T cell line of each patient capable of specifically recognizing the respective allergen.
A mixture of 5×10^4 cells of the autologous B cell line treated with mitomycin C, 2 μM of an overlapping peptide, and 2×10^4 cells of the T cell line was incubated for 2 days in RPMI-1640 medium supplemented with 0.2 ml of 15% serum on a 96-well culture plate. After 0.5 μCi [^3H] thymidine was added to the medium, incubation was continued for a further 18 hours. After the cells were harvested on a glass filter using a cell harvester, the level of [^3H] thymidine taken up into the cells was determined with a liquid scintillation counter. If the stimulation index is 2 or more, we consider that the added peptide is recognized as an antigenic peptide. The stimulation index means a value obtained by dividing the level of [^3H] thymidine taken up into the cells when the peptide was added by the level of [^3H] thymidine taken up into the cells when no peptide was added.
The HLA class II type is considered to vary in every patient. It is thus assumed that a T cell epitope to be recognized would vary depending on the HLA class II type. For this reason, the antigenic peptide that the patients recognized was mapped for the individual patient. […] On the allergen molecule, there are both regions that can be readily recognized and regions that can hardly be recognized, as a T cell epitope, depending on individuals. Moreover, since the proliferation rate of T cells varies depending on a T cell epitope, the epitope map alone makes it difficult to determine what antigenic peptide should be chosen to design the multi-epitope peptide.

[2] = system: spleen cells of CBF1 mice immunized with rCry j 2; test: Identifying T cell epitopes in CBF1 mice (spleen cell [3H] thymidine uptake); type: cell-based, mouse; conditions: peptides 0.115 μM; Cry j 1 50 μg/ml; rCry j 2 0.3 μg/ml
Description: Eight-week-old male CBF1 mice were boosted (i.p.) three times with 10 μg of recombinant Cry j 2 (rCry j 2) at intervals of two weeks together with an adjuvant (Imject Alum, manufactured by Pierce Inc.). One week after the final booster, the spleen cells (5×10^6 cells) were cultured together with each of the 74 kinds of Cry j 2 overlapping peptides (0.115 μM) consisting of 15 residues in 0.2 ml RPMI medium (supplemented with 10% FCS, 2 mM L-glutamine, 50 U/ml penicillin and 50 μg/ml streptomycin) in each well of a 96-well plate(manufactured by Falcon Inc.). For control, the reactivities with PBS, 50 μg/ml of Cry j 1, and 0.3 μg/ml of rCry j 2 were also observed. Each reagent was distributed in three wells and incubated at 37° C. for 3 days in 5% CO2. For the last 6 hours, pulse labeling was performed with 0.5 μCi/well of [^3H] thymidine. The cells were collected on a glass filter using a cell harvester (Inoteck, Bertold Japan Co., Ltd.). After drying, the level of [^3H] thymidine taken up into the cells was determined using a liquid scintillation counter (TRI-CARB 4530, Packard Japan KK).

[3] = system: rabbit anti-d epitope IgG; test: Positive control reactivity with rabbit anti-d epitope IgG; type: binding; conditions: blank: 112
Description: (§1) The six multi-epitope peptides (C.A.#1 through C.A.#6) obtained in Example 6 were dissolved in 0.2 M acetate buffer solution (pH 4.5). The solution was dispensed in quantities of 0.1 ml/well in a black plate (manufactured by Dainihon Pharmaceutical Co., Ltd.) then allowed to stand at 4° C. overnight. After the antigen solution was removed, the wells were washed three times with a washing solution and the serum (4-fold dilution) from 29 patients with cedar pollinosis and healthy subjects were each added to separate wells. The system was then reacted at 37° C. for 4 hours. After the sera were removed, the wells were washed three times with a washing solution then reacted with anti-human IgE antibody (made by Pharmacia Inc.) at room temperature overnight. After washing three times with a washing solution, a substrate solution containing 0.1 mM 4-methylumbelliferyl-, β-D-galacto-pyranoside/0.01 M phosphate buffer (pH 7.0), 0.1 M NaCl, 1 mM MgCl2, 0.1% NaN, and 0.1% BSA was added, and the solution was incubated at 37° C. for 2 hours. A solution of 0.1 M glycine/NaOH (pH 10.3) was added to the wells to terminate the reaction. Fluorescent intensity was measured using a fluorophotometer (Labsystems). For positive control to each multi-epitope peptide, biotin-labeled rabbit anti-d epitope IgG and peroxidase-labeled streptoavidin (made by Pierce Inc.) were reacted.

human IgE antibody = test: Reactivity of the multi-epitope peptides with human IgE antibody (fluorescence plate assay); type: binding
Description: as §1

B1: Cry j 1: major cedar pollen allergen, 353 amino acids, extracted and purified from cedar pollen (protein)
chain: DNPIDSCWRGDSNWAQNRMKLADCAVGFGSSTMGGKGGDLYTVTNSDDDPVNPAPGTLRYGATRDRPLWIIFSGNMNIKLKMPMYIAGYKTFDGRGAQVYIGNGGPCVFIKRVSNVIIHGLYLYGCSTSVLGNVLINESFGVEPVHPQDGDALTLRTATNIWIDHNSFSNSSDGLVDVTLTSTGVTISNNLFFNHHKVMLLGHDDAYSDDKSMKVTVAFNQFGPNCGQRMPRARYGLVHVANNNYDPWTIYAIGGSSNPTILSEGNSFTAPNESYKKQVTIRIGCKTSSSCSNWVWQSTQDVFYNGAYFVSSGKYEGGNIYTKKEAFNVENGNATPQLTKNAGVLTCSLSKRC
IL-2 production of lymphocytes restimulated with Cry j 1 (CBF1 mice): obviously reduced
number of T cell epitopes on the molecule that each patient recognized, average [1]: 9.8
reactivity of spleen cells ([3H] thymidine uptake) [2]: did not react
fluorescent intensity with rabbit anti-d epitope peptide IgG [3]: 230
fluorescent intensity (human IgE reactivity) (human IgE antibody; 14 subjects of 29): ≥ 100
fluorescent intensity (human IgE reactivity) (human IgE antibody; five subjects of 29): nine
fluorescent intensity (human IgE reactivity) (human IgE antibody; four subjects of 29): ≥ 10
fluorescent intensity (human IgE reactivity) (human IgE antibody; six subjects of 29): ≥ 1,000
